T1: WT-Sema3A with C-terminal His tag (human, UniProt Q14563 21-771, limits assumed)
T1 construct: also called wild type Sema3A; WT-Sema3A peptide; not shown: C-terminal His tag
T1 sequence: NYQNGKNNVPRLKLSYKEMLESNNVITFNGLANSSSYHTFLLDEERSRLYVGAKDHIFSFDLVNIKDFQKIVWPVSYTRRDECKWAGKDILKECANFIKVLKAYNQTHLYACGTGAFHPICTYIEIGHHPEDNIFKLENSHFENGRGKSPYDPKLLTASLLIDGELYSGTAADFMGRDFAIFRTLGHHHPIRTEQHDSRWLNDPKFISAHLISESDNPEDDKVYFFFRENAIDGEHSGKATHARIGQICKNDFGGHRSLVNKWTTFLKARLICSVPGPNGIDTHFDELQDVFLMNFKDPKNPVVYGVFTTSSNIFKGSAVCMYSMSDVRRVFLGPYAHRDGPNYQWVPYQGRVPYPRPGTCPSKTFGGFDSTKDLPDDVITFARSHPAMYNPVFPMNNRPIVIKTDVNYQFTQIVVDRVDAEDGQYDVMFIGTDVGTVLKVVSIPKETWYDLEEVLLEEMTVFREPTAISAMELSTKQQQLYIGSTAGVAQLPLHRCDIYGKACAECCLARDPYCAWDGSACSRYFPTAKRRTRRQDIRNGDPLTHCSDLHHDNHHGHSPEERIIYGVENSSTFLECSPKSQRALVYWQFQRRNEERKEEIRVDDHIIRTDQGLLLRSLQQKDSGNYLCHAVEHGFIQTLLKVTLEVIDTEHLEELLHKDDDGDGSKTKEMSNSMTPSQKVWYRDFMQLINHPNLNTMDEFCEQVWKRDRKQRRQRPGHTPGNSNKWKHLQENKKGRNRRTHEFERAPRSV


What was measured:
neuropilin-1 receptor = target: T2, neuropilin-1 receptor (human, UniProt O14786 22-923); assay: Sema3A-AP on parental U87MG cells expressing Nrp1, alkaline phosphatase colorimetric assay
T2 construct: whole, on cells; Endogenous receptor on human cells; also called Nrp1; nrp1

[1] = target: T1, WT-Sema3A with C-terminal His tag; assay: inferred by the filing from the phosphorylation assay in BLCL versus BLCL+CD72 cells
Experimental: Cells were serum starved for 16 h. At the day of the experiment, cells were activated with 5 μg/ml anti IgM for 5 min at 37° C. and then 10 μg/ml of Sema3A or elution buffer as a control were added for extra 10 min at 37° C. The experiment was terminated by a wash with ice cold PBS and lysed with phosphorylation lysis buffer (50 mM Tris-HCl pH-7.5, 150 mM NaCl, 2 mM EDTA, 2 mM EGTA, 5 mM NaF, 2 mM Na₃VO₄, 10 mM Na₄P₂O₇, 1% Triton X-100). 80 μg of proteins were subjected to SDS-PAGE and immunoblotted with an antibody directed against phosphorylated target protein, the blot was then stripped and re-probed with an antibody directed against total protein. Western blots were probed with the following antibodies: anti STAT4 (C-4) (Santa Cruz Biotechnology), anti phospho-STAT4 (Tyr693) (Santa Cruz Biotechnology), p38 MAPK Antibody (Cell Signaling Technology, Inc), Phospho-p38 MAPK (Thr180/Tyr182) Antibody (Cell Signaling Technology, Inc). Quantification of band intensity was performed using ImageQuant LAS 4000 program.
To test whether Sema3A signal transduction is mediated by CD72, Furthermore, CD72 was expressed in primary B-lymphoblastoid cells that lack neuropilin-1. […] Next, BLCL cells and BLCL cells expressing CD72 (BLCL+CD72) were stimulated with WT-Sema3A peptide. The phosphorylation state of Stat-4 and P38 was than determined. […]

T2 sequence (O14786 22-923): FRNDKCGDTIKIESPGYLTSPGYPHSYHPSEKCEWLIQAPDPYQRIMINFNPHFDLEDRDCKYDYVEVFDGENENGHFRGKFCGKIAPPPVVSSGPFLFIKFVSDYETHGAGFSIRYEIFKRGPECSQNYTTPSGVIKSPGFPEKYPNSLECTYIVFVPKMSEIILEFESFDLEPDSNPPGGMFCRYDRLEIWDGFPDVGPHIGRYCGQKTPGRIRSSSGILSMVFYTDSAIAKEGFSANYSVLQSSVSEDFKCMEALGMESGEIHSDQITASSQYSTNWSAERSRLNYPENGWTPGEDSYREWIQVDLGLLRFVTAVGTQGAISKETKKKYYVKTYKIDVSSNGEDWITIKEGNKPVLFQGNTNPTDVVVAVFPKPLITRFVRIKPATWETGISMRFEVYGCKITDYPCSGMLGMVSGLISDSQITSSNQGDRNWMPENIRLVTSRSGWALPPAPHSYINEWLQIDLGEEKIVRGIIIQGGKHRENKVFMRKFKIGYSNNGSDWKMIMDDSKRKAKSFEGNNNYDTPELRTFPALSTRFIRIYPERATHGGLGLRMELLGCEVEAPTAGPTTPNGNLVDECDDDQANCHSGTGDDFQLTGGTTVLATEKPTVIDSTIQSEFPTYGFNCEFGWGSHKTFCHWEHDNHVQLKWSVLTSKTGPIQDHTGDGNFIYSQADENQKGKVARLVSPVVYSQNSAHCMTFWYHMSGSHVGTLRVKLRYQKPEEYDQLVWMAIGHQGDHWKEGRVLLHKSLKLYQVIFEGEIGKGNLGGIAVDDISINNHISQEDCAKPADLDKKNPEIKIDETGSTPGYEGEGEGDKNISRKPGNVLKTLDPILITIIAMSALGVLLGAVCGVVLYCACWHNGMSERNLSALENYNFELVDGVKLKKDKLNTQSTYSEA

binding result (neuropilin-1 receptor) | binding result [1] | Binder
binds | – | Sema3A-AP (WT-Sema3A in frame with alkaline phosphatase) (ligand, Secreted by HEK293-Sema3A-AP cells and used as 50-fold concentrated conditioned medium; also called Sema3A-Alkaline Phosphatase; AP-Sema3A; not shown: alkaline phosphatase fused in frame) NYQNGKNNVPRLKLSYKEMLESNNVITFNGLANSSSYHTFLLDEERSRLYVGAKDHIFSFDLVNIKDFQKIVWPVSYTRRDECKWAGKDILKECANFIKVLKAYNQTHLYACGTGAFHPICTYIEIGHHPEDNIFKLENSHFENGRGKSPYDPKLLTASLLIDGELYSGTAADFMGRDFAIFRTLGHHHPIRTEQHDSRWLNDPKFISAHLISESDNPEDDKVYFFFRENAIDGEHSGKATHARIGQICKNDFGGHRSLVNKWTTFLKARLICSVPGPNGIDTHFDELQDVFLMNFKDPKNPVVYGVFTTSSNIFKGSAVCMYSMSDVRRVFLGPYAHRDGPNYQWVPYQGRVPYPRPGTCPSKTFGGFDSTKDLPDDVITFARSHPAMYNPVFPMNNRPIVIKTDVNYQFTQIVVDRVDAEDGQYDVMFIGTDVGTVLKVVSIPKETWYDLEEVLLEEMTVFREPTAISAMELSTKQQQLYIGSTAGVAQLPLHRCDIYGKACAECCLARDPYCAWDGSACSRYFPTAKRRTRRQDIRNGDPLTHCSDLHHDNHHGHSPEERIIYGVENSSTFLECSPKSQRALVYWQFQRRNEERKEEIRVDDHIIRTDQGLLLRSLQQKDSGNYLCHAVEHGFIQTLLKVTLEVIDTEHLEELLHKDDDGDGSKTKEMSNSMTPSQKVWYRDFMQLINHPNLNTMDEFCEQVWKRDRKQRRQRPGHTPGNSNKWKHLQENKKGRNRRTHEFERAPRSV
– | binds | CD72 (full-length, untagged, on cells: BLCL-CD72 cells; CD4+ T cells) (receptor, human, UniProt P21854 1-359, looked up, whole, on cells; also called CD72 receptor) MAEAITYADLRFVKAPLKKSISSRLGQDPGADDDGEITYENVQVPAVLGVPSSLASSVLGDKAAVKSEQPTASWRAVTSPAVGRILPCRTTCLRYLLLGLLLTCLLLGVTAICLGVRYLQVSQQLQQTNRVLEVTNSSLRQQLRLKITQLGQSAEDLQGSRRELAQSQEALQVEQRAHQAAEGQLQACQADRQKTKETLQSEEQQRRALEQKLSNMENRLKPFFTCGSADTCCPSGWIMHQKSCFYISLTSKNWQESQKQCETLSSKLATFSEIYPQSHSYYFLNSLLPNGGSGNSYWTGLSSNKDWKLTDDTQRTRTYAQSSKCNKVHKTWSWWTLESESCRSSLPYICEMTAFRFPD
